From US20190271705A1 (UNIVERSITY OF WESTERN ONTARIO, published 2019)

B1: T8V/S10A/K15L variant Fyn SH2 domain (designed binder)
chain: MKIEEHHHHHHSSGRENLYFQGGAAQPAAPVDSIQAEEWYFGKLGRKDAERQLLSFGNPRGTFLIRESETVKGAYALSIRDWDDMKGDHVKHYLIRKLDNGGYYITTRAQFETLQQLVQHYSERAAGLSSRLVVPSHKGAAA
B2: wild-type Fyn SH2 domain expressed as a GFP-fusion protein in HEK 293 cells (other, human, UniProt P06241 139-249, looked up)
chain: APVDSIQAEEWYFGKLGRKDAERQLLSFGNPRGTFLIRESETTKGAYSLSIRDWDDMKGDHVKHYKIRKLDNGGYYITTRAQFETLQQLVQHYSERAAGLCCRLVVPCHKG
notes: domain: SH2 domain; also called Wt Fyn SH2 domain; Wt; not shown: GFP encoded by the pEGFPC2 vector (Clontech)
B3: T8V/C10A/K15L variant Src SH2 domain expressed as a GFP-fusion protein in HEK 293 cells (designed binder)
chain: DSIQAEEWYFGKITRRESERLLLNAENPRGTFLVRESETVKGAYALSVSDFDNAKGLNVKHYLIRKLDSGGFYITSRTQFNSLQQLVAYYSKHADGLCHRLTTVCPTSK
notes: domain: SH2 domain; also called TrM Src SH2 domain; 8V/10A/15L-substituted Src SH2 domain; not shown: GFP encoded by the pEGFPC2 vector (Clontech)
B4: A8V/S10A/K15L variant Grb2 SH2 domain expressed as a GFP-fusion protein in HEK 293 cells (designed binder)
chain: MKPHPWFFGKIPRAKAEEMLSKQRHDGAFLIRESESVPGDFALSVKFGNDVQHFLVLRDGAGKYFLWVVKFNSLNELVDYHRSTSVSRNQQIFLRDIEQVPQQP
notes: also called TrM Grb2 SH2 domain; 8V/10A/15L-substituted Grb2 SH2 domain; not shown: GFP encoded by the pEGFPC2 vector (Clontech)

Key:
EGFR-pY978 peptide = biological target: T1, EGFR-pY978 peptide; test: fluorescence polarization in solution; reference wild-type Fyn SH2 domain
T1 construct: Synthetic pTyr-containing peptide
Protocol: Measurements of fluorescence polarization were conducted by titrating the SH2 domain concentration, while keeping the peptide concentration constant. Kd values were calculated with the GraphPad Prism software, by assuming the one-site binding model (GraphPad Software).

EGF receptor (EGFR) [1] = biological target: T2, EGF receptor (EGFR) (UniProt P00533 25-1210, tyrosine-phosphorylated in the C-terminal tail (cells treated with EGF and pervanadate); sites not stated); test: co-immunoprecipitation from HEK 293 cells, anti-GFP and anti-EGFR antibodies
T2 construct: Endogenous receptor of HEK 293 cells; detected with an anti-EGFR rabbit polyclonal antibody; also called epidermal growth factor receptor

EGF receptor (EGFR) [2] = biological target: T2, EGF receptor (EGFR); test: co-immunoprecipitation from HEK 293 cells

Binder | binding result (EGF receptor (EGFR) [2]) | other results
B1 |  | fold affinity increase (Kd[wild-type] divided by Kd[variant]) (EGFR-pY978 peptide): > 1000 fold
B2 |  | binding result (EGF receptor (EGFR) [1]): no binding
B3 | binds | 
B4 | binds | 
